# Substitutions are numbered along the chain they refer to. Names and notes keep the numbering of the source.
# B1: glutamate transporter GLT-1 (excitatory amino acid transporter 2, EAAT2), WT plasmid, P43006 G82R; L85P (protein)
# chain: MASTEGANNMPKQVEVRMHDSHLSSDEPKHRNLGMRMCDKLGKNLLLSLTVFGVILGAVCGGLLRLASPIHPDVVMLIAFPRDIPMRMLKMLILPLIISSLITGLSGLDAKASGRLGTRAMVYYMSTTIIAAVLGVILVLAIHPGNPKLKKQLGPGKKNDEVSSLDAFLDLIRNLFPENLVQACFQQIQTVTKKVLVAPPSEEANTTKAVISMLNETMNEAPEETKIVIKKGLEFKDGMNVLGLIGFFIAFGIAMGKMGEQAKLMVEFFNILNEIVMKLVIMIMWYSPLGIACLICGKIIAIKDLEVVARQLGMYMITVIVGLIIHGGIFLPLIYFVVTRKNPFSFFAGIFQAWITALGTASSAGTLPVTFRCLEDNLGIDKRVTRFVLPVGATINMDGTALYEAVAAIFIAQMNGVILDGGQIVTVSLTATLASIGAASIPSAGLVTMLLILTAVGLPTEDISLLVAVDWLLDRMRTSVNVVGDSFGAGIVYHLSKSELDTIDSQHRMQEDIEMTKTQSIYDDKNHRESNSNQCVYAAHNSVVIDECKVTLAANGKSADCSVEEEPWKREK
# B2: glutamate transporter GLT-1 (excitatory amino acid transporter 2, EAAT2), WT plasmid, P43006 G82R (protein)
# chain: B1 chain with P85L
# B3: glutamate transporter GLT-1 (excitatory amino acid transporter 2, EAAT2), WT plasmid, P43006 L85P (protein)
# chain: B1 chain with R82G
# Biological target: stromal-interacting molecule 1 (STIM1), Q13586
# Assay: Co-IP (STIM1 capture antibody, immunoblot for GLT-1, band quantification)
# Details: chain shown with the change; transfected HeLa cells; n = 3 per group; parent: est. 1.0; read off a plot
# Chain of stromal-interacting molecule 1 (STIM1), Q13586 (Q13586 23-685): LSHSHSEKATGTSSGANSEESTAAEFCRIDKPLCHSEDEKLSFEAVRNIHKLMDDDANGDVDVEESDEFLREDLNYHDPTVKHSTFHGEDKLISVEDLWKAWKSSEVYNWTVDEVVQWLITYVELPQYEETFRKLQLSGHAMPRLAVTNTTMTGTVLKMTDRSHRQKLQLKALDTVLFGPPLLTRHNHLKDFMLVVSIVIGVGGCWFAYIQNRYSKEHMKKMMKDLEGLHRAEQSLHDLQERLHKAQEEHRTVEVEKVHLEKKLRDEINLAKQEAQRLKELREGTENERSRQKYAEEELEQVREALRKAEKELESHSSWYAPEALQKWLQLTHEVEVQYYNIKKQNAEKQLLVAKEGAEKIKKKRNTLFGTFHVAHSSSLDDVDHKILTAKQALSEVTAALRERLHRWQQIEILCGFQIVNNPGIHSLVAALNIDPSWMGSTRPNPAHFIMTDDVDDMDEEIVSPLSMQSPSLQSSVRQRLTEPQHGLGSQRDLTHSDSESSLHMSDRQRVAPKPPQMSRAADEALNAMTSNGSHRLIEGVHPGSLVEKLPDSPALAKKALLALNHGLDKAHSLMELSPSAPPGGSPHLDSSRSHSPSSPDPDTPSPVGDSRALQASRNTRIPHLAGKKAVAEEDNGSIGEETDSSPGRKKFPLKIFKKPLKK
row,Binder,response (relative band intensity)
1,B1,0.12
2,B2,0.15
3,B3,0.13

# Biological target: Orai1, Q96D31
# Assay: Co-IP (GLT-1 capture antibody, immunoblot for Orai1, band quantification)
# Details: chain shown with the change; transfected HeLa cells; n = 3 per group; parent: est. 1.0; read off a plot
# Chain of Orai1, Q96D31 (Q96D31 whole entry): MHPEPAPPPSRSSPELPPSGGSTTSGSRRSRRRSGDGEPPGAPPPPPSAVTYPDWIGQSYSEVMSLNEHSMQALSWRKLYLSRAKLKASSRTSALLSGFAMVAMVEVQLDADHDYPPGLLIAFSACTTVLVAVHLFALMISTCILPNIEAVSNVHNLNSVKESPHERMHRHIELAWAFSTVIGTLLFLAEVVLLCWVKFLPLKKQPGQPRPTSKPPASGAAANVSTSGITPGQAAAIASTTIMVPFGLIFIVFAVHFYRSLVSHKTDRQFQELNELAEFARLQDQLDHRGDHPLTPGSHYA
row,Binder,response (relative band intensity)
1,B1,0.27
2,B2,0.22
3,B3,0.17

# Biological target: stromal-interacting molecule 1 (STIM1), Q13586
# Assay: Co-IP (GLT-1 capture antibody, immunoblot for STIM1, band quantification)
# Details: chain shown with the change; transfected HeLa cells; n = 3 per group; parent: est. 1.0; read off a plot
row,Binder,response (relative band intensity)
1,B1,0.08
2,B2,0.15
3,B3,0.12

# From paper PMC9772344
